From publication PMC9674253

Legend:
[1] = biological target: NPAS4 (1-348);ARNT2 (50-439) (mouse;mouse, UniProt Q8BGD7;Q61324 1-348;50-439, |); experiment: fluorescence polarization
[2] = biological target: NPAS4 (1-348);ARNT (82-465) (mouse;mouse, UniProt Q8BGD7;P53762 1-348;82-465, |); experiment: fluorescence polarization
NPAS4 (1-348);ARNT (82-465), sequence (Q8BGD7 1-348, chain 1 of 2): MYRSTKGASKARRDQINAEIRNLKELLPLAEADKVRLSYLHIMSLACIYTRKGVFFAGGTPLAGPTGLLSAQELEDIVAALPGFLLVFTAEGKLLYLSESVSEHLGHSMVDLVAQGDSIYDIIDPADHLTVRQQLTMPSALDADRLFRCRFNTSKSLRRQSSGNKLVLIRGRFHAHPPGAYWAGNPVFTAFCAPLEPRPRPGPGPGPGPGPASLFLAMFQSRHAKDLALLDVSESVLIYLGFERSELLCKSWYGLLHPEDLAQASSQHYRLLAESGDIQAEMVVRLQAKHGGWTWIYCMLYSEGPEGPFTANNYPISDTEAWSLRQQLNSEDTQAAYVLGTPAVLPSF
NPAS4 (1-348);ARNT (82-465), sequence (P53762 82-465, chain 2 of 2): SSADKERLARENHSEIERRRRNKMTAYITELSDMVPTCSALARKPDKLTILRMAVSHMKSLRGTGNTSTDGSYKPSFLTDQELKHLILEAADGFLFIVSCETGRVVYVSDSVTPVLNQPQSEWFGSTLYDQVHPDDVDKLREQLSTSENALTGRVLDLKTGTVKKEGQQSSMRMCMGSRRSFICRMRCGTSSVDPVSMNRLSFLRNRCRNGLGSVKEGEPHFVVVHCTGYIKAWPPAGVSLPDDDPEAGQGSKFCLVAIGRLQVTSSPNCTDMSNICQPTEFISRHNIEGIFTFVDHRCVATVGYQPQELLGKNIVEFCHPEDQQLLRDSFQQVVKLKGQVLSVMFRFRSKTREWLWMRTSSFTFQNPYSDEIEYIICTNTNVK

NPAS4 (1-348);ARNT2 (50-439), sequence (Q8BGD7 1-348, chain 1 of 2): as the sequence (Q8BGD7 1-348, chain 1 of 2) above
NPAS4 (1-348);ARNT2 (50-439), sequence (Q61324 50-439, chain 2 of 2): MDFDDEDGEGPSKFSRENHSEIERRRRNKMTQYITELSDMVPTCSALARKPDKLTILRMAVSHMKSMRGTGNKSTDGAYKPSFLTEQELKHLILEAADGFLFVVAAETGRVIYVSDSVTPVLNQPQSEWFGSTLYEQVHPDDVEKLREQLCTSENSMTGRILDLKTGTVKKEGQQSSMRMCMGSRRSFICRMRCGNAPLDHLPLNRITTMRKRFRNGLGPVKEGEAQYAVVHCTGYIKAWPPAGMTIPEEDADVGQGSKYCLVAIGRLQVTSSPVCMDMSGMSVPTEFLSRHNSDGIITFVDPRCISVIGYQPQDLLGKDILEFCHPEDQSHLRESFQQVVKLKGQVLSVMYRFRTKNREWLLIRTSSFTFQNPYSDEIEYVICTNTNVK

B1: 21-mer NPAS4 response element (FP) (dsDNA)
DNA 1: GGATGAGGTCGTGAGTGATGA
DNA 2: TCATCACTCACGACCTCATCC
Work on B1 yielded a Kd [1] of 46.8 ± 3.9 nM and a Kd [2] of 13.1 ± 0.4 nM.
